Several values for one entry are separate records, joined by “and”; a condition that tells them apart may be missing. Equal values may be shown once. Where no end group is shown, it is not given here. Cy5 = cyanine-5 fluorescent label
Key:
[1] = molecular target: T1, WD40 domain of Cdh1 from Saccharomyces cerevisiae (aa 241–550), for anisotropy (S. cerevisiae, UniProt P53197 241-550); test: FP
T1 chain: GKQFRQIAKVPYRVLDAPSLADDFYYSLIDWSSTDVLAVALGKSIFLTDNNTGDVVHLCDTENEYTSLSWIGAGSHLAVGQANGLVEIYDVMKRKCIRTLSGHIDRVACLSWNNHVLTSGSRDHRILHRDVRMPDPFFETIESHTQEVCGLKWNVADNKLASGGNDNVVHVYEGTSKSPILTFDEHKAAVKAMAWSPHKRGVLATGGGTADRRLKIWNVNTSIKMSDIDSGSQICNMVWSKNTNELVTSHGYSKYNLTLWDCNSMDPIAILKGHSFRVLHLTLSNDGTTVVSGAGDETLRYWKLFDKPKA

[2] = molecular target: T1, WD40 domain of Cdh1 from Saccharomyces …; test: FP; + unlabeled Hsl1 D box mutant peptide (100 uM)
[3] = molecular target: T1, WD40 domain of Cdh1 from Saccharomyces …; test: FP; + unlabeled Hsl1 D box peptide (100 uM)
[4] = molecular target: T1, WD40 domain of Cdh1 from Saccharomyces …; test: FP; + unlabeled Hsl1 KEN mutant peptide (100 uM)
[5] = molecular target: T2, WD40 domain of human Cdc20 (aa 162–484), for anisotropy (human, UniProt Q12834 162-484); test: FP
T2 chain: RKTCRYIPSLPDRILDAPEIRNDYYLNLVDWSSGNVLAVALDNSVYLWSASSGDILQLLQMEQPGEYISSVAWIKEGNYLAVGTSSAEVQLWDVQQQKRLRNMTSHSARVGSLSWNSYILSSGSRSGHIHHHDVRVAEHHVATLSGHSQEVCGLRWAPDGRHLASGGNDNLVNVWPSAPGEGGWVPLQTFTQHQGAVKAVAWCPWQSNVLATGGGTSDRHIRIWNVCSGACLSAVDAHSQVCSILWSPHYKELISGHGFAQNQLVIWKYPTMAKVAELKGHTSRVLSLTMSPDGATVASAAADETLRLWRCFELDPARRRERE

[6] = molecular target: T1, WD40 domain of Cdh1 from Saccharomyces …; test: FP; + unlabeled Hsl1 KEN peptide (100 uM)

EQKPKAAAASDITASFNKMNK-Cy5 [Cy5-labeled Hsl1 D box mutant peptide]
Kd [1]: > 30.6 µM

QDSKPRRALTDVPVNNNPLSQK-Cy5 [Cy5-labeled Clb5 D box peptide]
Kd [1]: > 30.6 µM

AQQQGRLPLAAKDNNRSKSFIK-Cy5 [Cy5-labeled ySecurin D box peptide]
Kd [1]: > 30.6 µM

GVSTNKENEGPEYPTKIEK-Cy5 [Cy5-labeled Hsl1 KEN peptide]
Kd [2]: 16 µM and 11 µM
Kd [3]: 3.4 µM
Kd [1]: 22 µM

EQKPKRAALSDITNSFNKMNK-Cy5 [Cy5-labeled Hsl1 D box peptide]
Kd [4]: 2.9 µM
Kd [5]: 2.5 µM
Kd [6]: 1.1 µM and 1.2 µM
Kd [1]: 2.9 µM

— publication PMC8764033 (2022)
